In this experiment the target is T1, MASP-1 (MBL-associated serine protease 1) (human, UniProt P48740 20-699).
T1 sequence (looked up): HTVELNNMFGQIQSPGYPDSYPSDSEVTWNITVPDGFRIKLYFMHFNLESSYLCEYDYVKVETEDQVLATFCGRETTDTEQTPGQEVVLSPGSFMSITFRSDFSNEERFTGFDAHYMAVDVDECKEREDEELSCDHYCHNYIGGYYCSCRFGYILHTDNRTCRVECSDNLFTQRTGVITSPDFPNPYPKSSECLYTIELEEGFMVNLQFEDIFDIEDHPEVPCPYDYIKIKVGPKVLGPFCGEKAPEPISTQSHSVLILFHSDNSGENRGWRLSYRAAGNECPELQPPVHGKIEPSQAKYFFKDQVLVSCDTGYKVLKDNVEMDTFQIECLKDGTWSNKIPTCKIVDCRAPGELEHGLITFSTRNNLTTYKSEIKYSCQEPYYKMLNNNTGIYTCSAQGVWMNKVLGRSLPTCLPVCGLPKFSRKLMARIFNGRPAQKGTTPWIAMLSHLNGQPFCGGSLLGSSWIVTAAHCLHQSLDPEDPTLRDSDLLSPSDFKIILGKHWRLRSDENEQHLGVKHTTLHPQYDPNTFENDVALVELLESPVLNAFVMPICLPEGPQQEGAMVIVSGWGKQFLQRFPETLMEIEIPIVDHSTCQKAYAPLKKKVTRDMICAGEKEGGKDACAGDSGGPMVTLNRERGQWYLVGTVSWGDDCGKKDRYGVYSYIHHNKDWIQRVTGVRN
Briefly: co-capture on anti-MASP-1-coated wells, eluate blotted with anti-pMASP-3.

Consider 1 molecule from patent publication US20030186419A1 (published 2003).

B1: mannan binding lectin-associated serine protease 3 (MASP-3), natural protein from human plasma/serum (enzyme)
chain: HTVELNNMFGQIQSPGYPDSYPSDSEVTWNITVPDGFRIKLYFMHFNLESSYLCEYDYVKVETEDQVLATFCGRETTDTEQTPGQEVVLSPGSFMSITFRSDFSNEERFTGFDAHYMAVDVDECKEREDEELSCDHYCHNYIGGYYCSCRFGYILHTDNRTCRVECSDNLFTQRTGVITSPDFPNPYPKSSECLYTIELEEGFMVNLQFEDIFDIQDHPEVPCPYDYIKIKVGPKVLGPFCGEKAPEPISTQSHSVLILFHSDNSAENRGWRLSYRAAGNECPELQPPVHGKIEPSQAKYFFKDQVLVSCDTGYKVLKDNVEMDTFQIECLKDGTWSNKIPTCKIVDCRAPGELEHGLITFSTRNNLTTYKSEIKYSCQEPYYKMLNNNTGIYTCSAQGVWMNKVLGRSLPTCLPECGQPSRSLPSLVKRIIGGRNAEPGLFPWQALIVVEDTSRVPNDKWFGSGALLSASWILTAAHVLRSQRRDTTVIPVSKEHVTVYLGLHDVRDKSGAVNSSAARVVLHPDFNIQNYNHDIALVQLQEPVPLGPHVMPVCLPRLEPEGPAPHMLGLVAGWGISNPNVTVDEIISSGTRTLSDVLQYVKLPVVPHAECKTSYESRSGNYSVTENMFCAGYYEGGKDTCLGDSGGAFVIFDDLSQRWVVQGLVSWGGPEECGSKQVYGVYTKVSNYVDWVWEQMGLPQSVVEPQVER
notes: Natural protein in lectin preparations, MBL complexes or serum; On reducing blots only the B chain is seen; also called MBL-associated serine protease-3; lectin associated serine protease 110
B1: the binding result is reported as “no binding”.
